Reference: patent publication US20140363438A1, “NEUREGULIN ANTIBODIES AND USES THEREOF” (Genentech, Inc., priority 2011, published 2014)
Numbering of substitutions follows the chain as printed.

Columns and labels:
H441 tumor model = assay: H441 xenograft after chemotherapy: tumor response and NRG1 expression in residual tumor cells (qPCR); format: in vivo, human
Procedure: (§1) RNA was isolated using the Qiagen RNeasy Micro Kit, Complementary DNA was prepared from total RNA using ABI high fidelity kit according to manufacturer's instructions. NRG1alpha, NRG1beta, HER3, HER4 expression was determined using ABI gene specific primers/probe by quantitative real time PCR (ABI 7500). Gene expression was normalized using GAPDH or RAB14 house keeping genes.
(§2) Tumor cells (10-20 million) were transplanted into right flank of athymic nude mice. When tumor size reached ˜200 mm^3, the mice were divided into different treatment groups. Mice were then treated with either vehicle or chemotherapy (paclitaxel, i.v.+cisplatin, i.p.) for the initial studies. The chemotherapy dosing regimen was paclitaxel 20 mg/kg i.v. every other day for 5 doses and cisplatin 5 mg/kg i.p. on days 1 and 7 for the Calu3 model and days 1 and 14 for the H441 model. Regressed tumors and time matched vehicle controls were collected at least 1 week after the last dose of chemo. Tumors were dissociated using dispase/collagenase and samples were FACS sorted to collect the GFP positive tumor cells. For the NRG1 knockdown studies, the treatment groups were: sucrose, doxycycline (dox), chemotherapy+sucrose, and chemotherapy+doxycycline. […]
(§3) The expression of NRG1 in TRICs isolated from the Calu3 and H441 xenograft models was analyzed. […]

Calu3 tumor model = assay: Calu3 xenograft after chemotherapy: tumor response and NRG1 expression in residual tumor cells (qPCR); format: in vivo, human
Procedure: as §1, §2, §3

[1] = biological target: T1, Recombinant human NRG1-β ECD domain (R&D Systems, cat#377-HB/CF) (human, UniProt Q02297-11 121-191, limits assumed); assay: SPR (BIAcore T100), IgG captured by anti-human Fc, NRG1β injected; sensorgram shown for 6.25 nM NRG-beta
T1 construct: also called NRG1-beta; HRG1β
T1 sequence: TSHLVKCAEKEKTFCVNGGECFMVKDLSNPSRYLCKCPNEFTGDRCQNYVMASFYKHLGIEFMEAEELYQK
Procedure: (§4) Binding affinities of anti-NRG1 IgGs were measured by Surface Plasmon Resonance (SRP) using a BIAcore™-T100 instrument. Anti-NRG1 human IgGs were captured by mouse anti-human Fc antibody (GE Healthcare, cat# BR-1008-39) coated on CM5 biosensor chips to achieve approximately 1000 response units (RU). […] Association rates (kₒₙ) and dissociation rates (koff) were calculated using a simple one-to-one Langmuir binding model (BIAcore Evaluation Software version 3.2). The equilibrium dissociation constant (KD) was calculated as the ratio koff/kₒₙ.

HB-EGF = HB-EGF (UniProt Q99075 63-148, limits assumed); assay: ELISA
Betacellulin (BTC) = biological target: T2, Betacellulin (BTC) (UniProt P35070 32-111); assay: ELISA
T2 sequence (looked up): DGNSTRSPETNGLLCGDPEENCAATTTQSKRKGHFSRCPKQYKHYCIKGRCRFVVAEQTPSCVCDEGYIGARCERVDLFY

EGF = EGF (UniProt P01133 971-1023); assay: ELISA
[2] = biological target: T3, Recombinant human NRG1-α EGF domain (R&D Systems, cat#296-HR/CF) (human, UniProt Q02297 177-241); assay: SPR (BIAcore T100), IgG captured by anti-human Fc, NRG1α injected; sensorgram shown for 6.25 nM NRG-alpha
T3 construct: also called NRG1-alpha; HRG1α
T3 sequence: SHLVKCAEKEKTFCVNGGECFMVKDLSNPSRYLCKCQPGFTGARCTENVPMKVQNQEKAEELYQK
Procedure: as §4

[3] = biological target: T4, Recombinant human Neuregulin 1-beta (rhNRG1b, Genentech) (human, UniProt Q02297 1-640); assay: cell-based or functional assay
T4 sequence: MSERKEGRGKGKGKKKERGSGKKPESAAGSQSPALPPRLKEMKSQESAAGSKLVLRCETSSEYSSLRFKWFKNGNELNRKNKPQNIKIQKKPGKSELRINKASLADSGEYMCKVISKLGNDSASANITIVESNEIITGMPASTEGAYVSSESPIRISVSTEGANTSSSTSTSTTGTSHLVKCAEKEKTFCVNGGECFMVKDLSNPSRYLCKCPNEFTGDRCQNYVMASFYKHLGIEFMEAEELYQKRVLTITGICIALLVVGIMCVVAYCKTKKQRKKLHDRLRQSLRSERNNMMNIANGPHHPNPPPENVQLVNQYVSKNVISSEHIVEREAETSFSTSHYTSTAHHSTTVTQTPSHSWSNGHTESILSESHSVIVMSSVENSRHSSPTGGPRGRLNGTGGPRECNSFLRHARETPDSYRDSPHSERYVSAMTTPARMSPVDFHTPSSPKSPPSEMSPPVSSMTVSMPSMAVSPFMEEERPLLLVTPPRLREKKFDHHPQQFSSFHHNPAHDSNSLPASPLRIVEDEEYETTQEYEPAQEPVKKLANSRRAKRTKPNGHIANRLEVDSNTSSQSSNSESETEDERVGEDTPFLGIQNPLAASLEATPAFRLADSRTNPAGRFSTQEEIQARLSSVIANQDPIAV

[4] = biological target: T3, Recombinant human NRG1-α EGF domain …; assay: cell-based or functional assay
[5] = biological target: T3, Recombinant human NRG1-α EGF domain …; assay: SPR (BIAcore T100), IgG captured by anti-human Fc, NRG1α injected; table under the head '250 nM NRG1-alpha'
Procedure: as §4

[6] = biological target: T1, Recombinant human NRG1-β ECD domain …; assay: SPR (BIAcore T100), IgG captured by anti-human Fc; table under the head '125nM NRG-beta'; this table is identical to that of FIG. 9 (NRG1-alpha) and does not fit the slow dissociation of the sensorgrams above it
[7] = biological target: T1, Recombinant human NRG1-β ECD domain …; assay: SPR (BIAcore T100), IgG captured by anti-human Fc, NRG1β (HRG-beta) injected; sensorgram shown for 7.8 nM (sheet: '7.8 mnM HRG beta')
Procedure: as §4

[8] = biological target: T3, Recombinant human NRG1-α EGF domain …; assay: SPR (BIAcore T100), IgG captured by anti-human Fc, NRG1α (HRG-alpha) injected; sensorgram shown for 7.8 nM (sheet: '7.8 mnM HRG alpha')
Procedure: as §4

Chain of HB-EGF (Q99075 63-148 limits assumed): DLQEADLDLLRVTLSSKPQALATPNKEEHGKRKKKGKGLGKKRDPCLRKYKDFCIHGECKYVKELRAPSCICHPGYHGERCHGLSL
Chain of EGF (P01133 971-1023 limits assumed): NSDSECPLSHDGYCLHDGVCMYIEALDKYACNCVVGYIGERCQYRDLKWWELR

For `CCC1=C[C@@H]2CN(C1)Cc1c([nH]c3ccccc13)[C@@](C(=O)OC)(c1cc3c(cc1OC)N(C)[C@H]1[C@@](O)(C(=O)OC)[C@H](OC(C)=O)[C@]4(CC)C=CCN5CC[C@]31[C@@H]54)C2` [vinorelbine], which “tumor response to treatment” value (H441 tumor model) is on record?
Its value is “continued to grow”.

And the “tumor response to treatment” value (Calu3 tumor model)?
Its value is “continued to grow”.

How did the “tumor response to treatment” value (H441 tumor model) turn out when `Nc1ccn([C@@H]2O[C@H](CO)[C@@H](O)C2(F)F)c(=O)n1` [gemcitabine] was run?
Its value is “tumor regression”.

And the “tumor response to treatment” value (Calu3 tumor model)?
The value was “tumor regression”.

B1: anti-NRG1 antibody 526.90.28 (antibody, human IgG1, kappa, V domains shown)
VH: EVQLVESGGGLVQPGGSLRLSCAASGFTFSDIAMSWVRQAPGKGLEWVSWIYPSGGNTYYADSVKGRFTISADTSKNTAYLQMNSLRAEDTAVYYCARSYILSQKSATWAFDYWGQGTLVTVSS
VL: DIQMTQSPSSLSASVGDRVTITCRASQSISSYLAWYQQKPGKAPKLLIYGASSRASGVPSRFSGSGSGTDFTLTISSLQPEDFATYYCQQSYSTPITFGQGTKVEIKR
notes: also called YW526.90.28
What does the source list for B1?
Kd [1]: 1.09 nM; koff [1]: 0.000367 s⁻¹; kon [1]: 337000 M⁻¹ s⁻¹; binding result (HB-EGF): no binding; binding result (Betacellulin (BTC)): no binding; binding result (EGF): no binding; Kd [2]: 0.587 nM; koff [2]: 0.000595 s⁻¹; kon [2]: 1.01e+06 M⁻¹ s⁻¹; IC50 of inhibition of Her3 activation (phosphorylation), KIRA on MCF-7 cells, 0.2 nM rhNRG1b [3]: 1.44 nM; IC50 of inhibition of Her3 activation (phosphorylation), KIRA on MCF-7 cells, 0.5 nM rhNRG1a [4]: 13.9 nM

B2: anti-NRG1 antibody 538.24 (antibody, human IgG1, V domains shown)
VH: EVQLVESGGGLVQPGGSLRLSCAASGFTFSGTWIHWVRQAPGKGLEWVAAITPADGSTNYADSVKGRFTISADTSKNTAYLQMNSLRAEDTAVYYCATYMFAMDYWGQGTLVTVSS
VL: DIQMTQSPSSLSASVGDRVTITCRASQDVSTAVAWYQQKPGKAPKLLIYSASFLYSGVPSRFSGSGSGTDFTLTISSLQPEDFATYYCQQSYTTPPTFGQGTKVEIKR
notes: also called YW538.24
How did the Kd [5] turn out when B2 was run?
The Kd was > 400 nM.

B3: anti-NRG1 antibody 538.24.17 (antibody, human IgG1, V domains shown)
VH: B2 VH
VL: B2 VL with T93W, T94M
notes: also called YW538.24.17
For B3, which Kd [6] is on record?
Its Kd is 5.18 nM.

And the koff [6]?
Its koff is 0.0081 s⁻¹.

And the kon [6]?
The kon was 1.56e+06 M⁻¹ s⁻¹.

What about the Kd [5] of the same molecule?
Its Kd is 5.18 nM.

And the koff [5]?
Its koff is 0.0081 s⁻¹.

What about the kon [5] of the same molecule?
Its kon is 1.56e+06 M⁻¹ s⁻¹.

B4: anti-NRG1 antibody 538.24.36 (antibody, human IgG1, V domains shown)
VH: B2 VH
VL: DIQMTQSPSSLSASVGDRVTITCRASQNVDRSLAWYQQKPGKAPKLLIYAASSLESGVPSRFSGSGSGTDFTLTISSLQPEDFATYYCQQHYTLPFTFGQGTKVEIKR
notes: also called YW538.24.36
Which results are given for B4?
Kd [6]: 13.2 nM; koff [6]: 0.0252 s⁻¹; kon [6]: 1.91e+06 M⁻¹ s⁻¹; Kd [5]: 13.2 nM; koff [5]: 0.0252 s⁻¹; kon [5]: 1.91e+06 M⁻¹ s⁻¹

B5: anti-NRG1 antibody 538.24.94 (antibody, human IgG1, V domains shown)
VH: B2 VH
VL: B4 VL with N28D, D30K, R31K, A50G, S53N, F96L
notes: also called YW538.24.94
Which Kd [7] does the source give for B5 here?
Its Kd is 0.109 nM.

And the koff [7]?
Its koff is 7.34e-05 s⁻¹.

What about the kon [7] of the same molecule?
The kon was 674000 M⁻¹ s⁻¹.

What about the Kd [8] of the same molecule?
The Kd was 1.74 nM.

And the koff [8]?
Its koff is 0.00674 s⁻¹.

What about the kon [8] of the same molecule?
Its kon is 3.87e+06 M⁻¹ s⁻¹.

What about the Kd [6] of the same molecule?
The Kd was 1.96 nM.

And the kon [6]?
The kon was 480000 M⁻¹ s⁻¹.
